Source: paper PMC5003418

Experiments:
[1] = biological target: HIV-1 integrase K264A/K266A, recombinant, 6xHis-tagged (HIV-1); assay: SEC
[2] = biological target: HIV-1 integrase R269A/K273A, recombinant, 6xHis-tagged (HIV-1); assay: SEC

Row | Substance | stoichiometry N [1] | stoichiometry N [2]
1 | HIV-1 integrase K264A/K266A, recombinant, 6xHis-tagged (enzyme) | 4 | –
2 | HIV-1 integrase R269A/K273A, recombinant, 6xHis-tagged (enzyme) | – | 4
